Earlier results as cited in publication PMC7031699.
Read-outs that look alike come from different tables or passages of the source.

How the values were obtained:
Gq (Homo sapiens) [1] = target: Gq (Homo sapiens) (UniProt P50148)
Gq (Homo sapiens) [2] = target: Gq (Homo sapiens) (UniProt P50148); remark: listed apart in the source

Sequence of UniProt P50148 (P50148 whole entry): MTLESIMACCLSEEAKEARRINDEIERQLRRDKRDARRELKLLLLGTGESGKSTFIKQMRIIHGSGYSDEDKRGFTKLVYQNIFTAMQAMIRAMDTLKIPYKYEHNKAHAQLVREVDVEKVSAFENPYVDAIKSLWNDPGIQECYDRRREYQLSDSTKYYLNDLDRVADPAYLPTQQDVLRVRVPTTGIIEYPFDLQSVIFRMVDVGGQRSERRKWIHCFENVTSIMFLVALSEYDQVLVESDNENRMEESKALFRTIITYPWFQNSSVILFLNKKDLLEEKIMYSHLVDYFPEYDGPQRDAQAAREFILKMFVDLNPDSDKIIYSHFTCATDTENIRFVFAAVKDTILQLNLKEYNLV

- Kd (Gq (Homo sapiens) [1]): 550 nM
- Kd (Gq (Homo sapiens) [2]): > 5000 nM
Substance: NTS1 (from UniProt P20789)
